Measured values as given in paper PMC12102759 (2025).

B1: SH3BP2 peptide 408-423 (SH3 domain-binding protein 2), 16-mer library wild type / TNKS ANK (TNKS 12 ANK repeats, residues 174-649) (parent complex)
chain 1: PQLPHLQRSPPDGQSF
chain 2: TGVPAVSGALRELLEACRNGDVSRVKRLVDAANVNAKDMAGRKSSPLHFAAGFGRKDVVEHLLQMGANVHARDDGGLIPLHNACSFGHAEVVSLLLCQGADPNARDNWNYTPLHEAAIKGKIDVCIVLLQHGADPNIRNTDGKSALDLADPSAKAVLTGEYKKDELLEAARSGNEEKLMALLTPLNVNCHASDGRKSTPLHLAAGYNRVRIVQLLLQHGADVHAKDKGGLVPLHNACSYGHYEVTELLLKHGACVNAMDLWQFTPLHEAASKNRVEVCSLLLSHGADPTLVNCHGKSAVDMAPTPELRERLTYEFKGHSLLQAAREADLAKVKKTLALEIINFKQPQSHETALHCAVASLHPKRKQVTELLLRKGANVNEKNKDFMTPLHVAAERAHNDVMEVLHKHGAKMNALDTLGQTALHRAALAGHLQTCRLLLSYGSDPSIISLQGFTAAQMGNEAVQQILSESTPIRTSD

Variants of: B1
Test: proteomic peptide phage display deep mutational scan (ProP-PD DMS): M13 P8 16-mer library selected against immobilised GST-tagged bait for four days (rounds), NGS of the eluted pools per day and pseudo-replica; bait immobilised on MaxiSorp plates (10 µg), library pre-cleared on GST, 2 h binding at 4 °C, five washes; one round per day, days 1-4; value from days 2 and 3

| Variant | screen value |
| --- | --- |
| chain 1 H5G | 0.000153 average fractional NGS count over selection days 2 and 3 (reads of this peptide / all reads for the bait, averaged over … |
| chain 1 H5Q | 0.00258 average fractional NGS count over selection days 2 and 3 (reads of this peptide / all reads for the bait, averaged over … |
| chain 1 H5V | 0.000333 average fractional NGS count over selection days 2 and 3 (reads of this peptide / all reads for the bait, averaged over … |
| chain 1 H5T | 0.000644 average fractional NGS count over selection days 2 and 3 (reads of this peptide / all reads for the bait, averaged over … |
| chain 1 H5F | 0.00112 average fractional NGS count over selection days 2 and 3 (reads of this peptide / all reads for the bait, averaged over … |
| chain 1 H5R | 0.00137 average fractional NGS count over selection days 2 and 3 (reads of this peptide / all reads for the bait, averaged over … |
| chain 1 H5I | 0.000472 average fractional NGS count over selection days 2 and 3 (reads of this peptide / all reads for the bait, averaged over … |
| chain 1 H5P | 0.000222 average fractional NGS count over selection days 2 and 3 (reads of this peptide / all reads for the bait, averaged over … |
| chain 1 H5S | 0.000337 average fractional NGS count over selection days 2 and 3 (reads of this peptide / all reads for the bait, averaged over … |
| chain 1 P11G | 0.0132 average fractional NGS count over selection days 2 and 3 (reads of this peptide / all reads for the bait, averaged over … |
| chain 1 D12Q | 0.000387 average fractional NGS count over selection days 2 and 3 (reads of this peptide / all reads for the bait, averaged over … |
| chain 1 D12I | 0.000718 average fractional NGS count over selection days 2 and 3 (reads of this peptide / all reads for the bait, averaged over … |
| chain 1 D12M | 0.000556 average fractional NGS count over selection days 2 and 3 (reads of this peptide / all reads for the bait, averaged over … |
| chain 1 D12A | 0.000288 average fractional NGS count over selection days 2 and 3 (reads of this peptide / all reads for the bait, averaged over … |
| chain 1 D12S | 0.000143 average fractional NGS count over selection days 2 and 3 (reads of this peptide / all reads for the bait, averaged over … |
| chain 1 D12E | 0.00128 average fractional NGS count over selection days 2 and 3 (reads of this peptide / all reads for the bait, averaged over … |
| chain 1 F16Y | 0.011 average fractional NGS count over selection days 2 and 3 (reads of this peptide / all reads for the bait, averaged over … |
| chain 1 F16L | 0.00209 average fractional NGS count over selection days 2 and 3 (reads of this peptide / all reads for the bait, averaged over … |
| chain 1 F16H | 0.00294 average fractional NGS count over selection days 2 and 3 (reads of this peptide / all reads for the bait, averaged over … |
| chain 1 F16R | 0.00135 average fractional NGS count over selection days 2 and 3 (reads of this peptide / all reads for the bait, averaged over … |
| chain 1 F16I | 0.000483 average fractional NGS count over selection days 2 and 3 (reads of this peptide / all reads for the bait, averaged over … |
| chain 1 F16A | 0.00179 average fractional NGS count over selection days 2 and 3 (reads of this peptide / all reads for the bait, averaged over … |
| chain 1 F16T | 0.000194 average fractional NGS count over selection days 2 and 3 (reads of this peptide / all reads for the bait, averaged over … |
| chain 1 F16W | 0.000272 average fractional NGS count over selection days 2 and 3 (reads of this peptide / all reads for the bait, averaged over … |
| chain 1 F16V | 0.00271 average fractional NGS count over selection days 2 and 3 (reads of this peptide / all reads for the bait, averaged over … |

| Variant | screen value |
| --- | --- |
| chain 1 F16G | 0.000376 average fractional NGS count over selection days 2 and 3 (reads of this peptide / all reads for the bait, averaged over … |
| chain 1 F16P | 0.0012 average fractional NGS count over selection days 2 and 3 (reads of this peptide / all reads for the bait, averaged over … |
| chain 1 F16N | 0.000118 average fractional NGS count over selection days 2 and 3 (reads of this peptide / all reads for the bait, averaged over … |
| chain 1 Q7M | 0.00158 average fractional NGS count over selection days 2 and 3 (reads of this peptide / all reads for the bait, averaged over … |
| chain 1 Q7V | 0.00169 average fractional NGS count over selection days 2 and 3 (reads of this peptide / all reads for the bait, averaged over … |
| chain 1 Q7I | 0.000144 average fractional NGS count over selection days 2 and 3 (reads of this peptide / all reads for the bait, averaged over … |
| chain 1 Q7D | 0.00248 average fractional NGS count over selection days 2 and 3 (reads of this peptide / all reads for the bait, averaged over … |
| chain 1 Q7Y | 0.00125 average fractional NGS count over selection days 2 and 3 (reads of this peptide / all reads for the bait, averaged over … |
| chain 1 Q7F | 0.00823 average fractional NGS count over selection days 2 and 3 (reads of this peptide / all reads for the bait, averaged over … |
| chain 1 Q7E | 0.000295 average fractional NGS count over selection days 2 and 3 (reads of this peptide / all reads for the bait, averaged over … |
| chain 1 Q7W | 0.000561 average fractional NGS count over selection days 2 and 3 (reads of this peptide / all reads for the bait, averaged over … |
| chain 1 Q7K | 0.000537 average fractional NGS count over selection days 2 and 3 (reads of this peptide / all reads for the bait, averaged over … |
| chain 1 Q7H | 0.00147 average fractional NGS count over selection days 2 and 3 (reads of this peptide / all reads for the bait, averaged over … |
| chain 1 Q7L | 0.00476 average fractional NGS count over selection days 2 and 3 (reads of this peptide / all reads for the bait, averaged over … |
| chain 1 Q7T | 0.000465 average fractional NGS count over selection days 2 and 3 (reads of this peptide / all reads for the bait, averaged over … |
| chain 1 Q7G | 0.00109 average fractional NGS count over selection days 2 and 3 (reads of this peptide / all reads for the bait, averaged over … |
| chain 1 P4I | 0.000387 average fractional NGS count over selection days 2 and 3 (reads of this peptide / all reads for the bait, averaged over … |
| chain 1 P4W | 0.000229 average fractional NGS count over selection days 2 and 3 (reads of this peptide / all reads for the bait, averaged over … |
| chain 1 P4S | 0.000214 average fractional NGS count over selection days 2 and 3 (reads of this peptide / all reads for the bait, averaged over … |
| chain 1 P4E | 0.000494 average fractional NGS count over selection days 2 and 3 (reads of this peptide / all reads for the bait, averaged over … |
| chain 1 P4D | 0.000447 average fractional NGS count over selection days 2 and 3 (reads of this peptide / all reads for the bait, averaged over … |
| chain 1 P4L | 0.000189 average fractional NGS count over selection days 2 and 3 (reads of this peptide / all reads for the bait, averaged over … |
| chain 1 P4Q | 0.000351 average fractional NGS count over selection days 2 and 3 (reads of this peptide / all reads for the bait, averaged over … |
| chain 1 P4H | 0.00111 average fractional NGS count over selection days 2 and 3 (reads of this peptide / all reads for the bait, averaged over … |
| chain 1 P4M | 0.00173 average fractional NGS count over selection days 2 and 3 (reads of this peptide / all reads for the bait, averaged over … |

| Variant | screen value |
| --- | --- |
| chain 1 P4A | 0.00484 average fractional NGS count over selection days 2 and 3 (reads of this peptide / all reads for the bait, averaged over … |
| chain 1 P4V | 0.000162 average fractional NGS count over selection days 2 and 3 (reads of this peptide / all reads for the bait, averaged over … |
| chain 1 L3M | 0.000961 average fractional NGS count over selection days 2 and 3 (reads of this peptide / all reads for the bait, averaged over … |
| chain 1 L3I | 0.000205 average fractional NGS count over selection days 2 and 3 (reads of this peptide / all reads for the bait, averaged over … |
| chain 1 L3T | 0.000337 average fractional NGS count over selection days 2 and 3 (reads of this peptide / all reads for the bait, averaged over … |
| chain 1 L3V | 0.000203 average fractional NGS count over selection days 2 and 3 (reads of this peptide / all reads for the bait, averaged over … |
| chain 1 L3N | 0.000433 average fractional NGS count over selection days 2 and 3 (reads of this peptide / all reads for the bait, averaged over … |
| chain 1 L3S | 0.000201 average fractional NGS count over selection days 2 and 3 (reads of this peptide / all reads for the bait, averaged over … |
| chain 1 L3P | 0.000341 average fractional NGS count over selection days 2 and 3 (reads of this peptide / all reads for the bait, averaged over … |
| chain 1 L3E | 0.00036 average fractional NGS count over selection days 2 and 3 (reads of this peptide / all reads for the bait, averaged over … |
| chain 1 L3R | 0.000308 average fractional NGS count over selection days 2 and 3 (reads of this peptide / all reads for the bait, averaged over … |
| chain 1 L3A | 0.000216 average fractional NGS count over selection days 2 and 3 (reads of this peptide / all reads for the bait, averaged over … |
| chain 1 P10D | 0.000749 average fractional NGS count over selection days 2 and 3 (reads of this peptide / all reads for the bait, averaged over … |
| chain 1 P10V | 0.00118 average fractional NGS count over selection days 2 and 3 (reads of this peptide / all reads for the bait, averaged over … |
| chain 1 P10T | 0.00166 average fractional NGS count over selection days 2 and 3 (reads of this peptide / all reads for the bait, averaged over … |
| chain 1 P10N | 0.00386 average fractional NGS count over selection days 2 and 3 (reads of this peptide / all reads for the bait, averaged over … |
| chain 1 P10H | 0.0139 average fractional NGS count over selection days 2 and 3 (reads of this peptide / all reads for the bait, averaged over … |
| chain 1 P10S | 0.000405 average fractional NGS count over selection days 2 and 3 (reads of this peptide / all reads for the bait, averaged over … |
| chain 1 P10K | 0.00107 average fractional NGS count over selection days 2 and 3 (reads of this peptide / all reads for the bait, averaged over … |
| chain 1 P10G | 0.00637 average fractional NGS count over selection days 2 and 3 (reads of this peptide / all reads for the bait, averaged over … |
| chain 1 P10Y | 0.000858 average fractional NGS count over selection days 2 and 3 (reads of this peptide / all reads for the bait, averaged over … |
| chain 1 P10W | 0.000201 average fractional NGS count over selection days 2 and 3 (reads of this peptide / all reads for the bait, averaged over … |
| chain 1 P10Q | 0.00105 average fractional NGS count over selection days 2 and 3 (reads of this peptide / all reads for the bait, averaged over … |
| chain 1 P10E | 0.00215 average fractional NGS count over selection days 2 and 3 (reads of this peptide / all reads for the bait, averaged over … |
| chain 1 P10I | 0.00249 average fractional NGS count over selection days 2 and 3 (reads of this peptide / all reads for the bait, averaged over … |
